Results: patent publication US20220146515A1 (XIAMEN INNODX BIOTECH, published 2022)

Assays:
Experiment in all cases: competition ELISA, antibody preincubated with target, AMH-coated plate
[1] = target: T1, AMH truncated antigen 38-45 (human)
T1 peptide: IFREDLDW
Experimental: (§1) 1. AMH antigen was diluted with carbonic acid buffer (20 mmol/L CB, pH 9.6) and then coated on a polyvinyl chloride plate. In the pretreatment, the antibody purified by the protein A column and the synthesized AMH truncated antigen sequences (see Table 3 for each synthetic sequence) were subjected to proportion incubation (100 ng/ml antibody: 50 ug/ml truncated antigen) for 30 minutes, that were test samples; the control sample was 100 ng/ml antibody: PBS, incubation for 30 minutes, and then the test samples after incubation and the control sample were added to AMH antigen plate and incubated for 30 minutes, the plate was washed for 5 times, added with GAM-HRP (1/5000 dilution) and incubated for 30 minutes, the plate was washed for 5 times, and the substrate was added and incubated for 15 minutes. The values under wavelength of 450/620 were read by microplate reader, and the detected OD values were finally calculated and analyzed. The calculation formula was: (control sample OD value−test sample OD value)/control sample OD value, and the criterion for determination was as follows: more than 90%, which indicated a good competitive effect, showing that the antibody should recognize the epitope.

[2] = target: T2, AMH truncated antigen 40-47 (human)
T2 peptide: REDLDWPP
Experimental: as §1

[3] = target: T3, AMH truncated antigen 32-41 (human)
T3 peptide: VGTSGLIFRE
Experimental: as §1

[4] = target: T4, AMH truncated antigen 42-46 (human)
T4 peptide: DLDWP
Experimental: as §1

[5] = target: T5, AMH truncated antigen 41-48 (human)
T5 peptide: EDLDWPPG
Experimental: as §1

[6] = target: T6, AMH truncated antigen 31-43 (human)
T6 peptide: AVGTSGLIFREDL
Experimental: as §1

[7] = target: T7, AMH truncated antigen 36-47 (human)
T7 construct: also called human AMH36-47; AMH3647-27 (Human)
T7 peptide: GLIFREDLDWPP

[8] = target: T8, AMH3647-4 (Lemur sequence) (Lemur)
T8 peptide: GLIFHEDWDWLP

[9] = target: T9, AMH3647-8 (Myotis sequence) (Myotis)
T9 peptide: GLIFHQDWDWPA

[10] = target: T10, AMH3647-20 (Goat sequence) (Goat)
T10 peptide: TLIFQQDWDWPL

[11] = target: T11, AMH3647-15 (Guinea pig sequence) (Guinea pig)
T11 peptide: GLIFPEDQVWPP

[12] = target: T12, AMH3647-22 (Mouse sequence) (Mouse)
T12 peptide: GLIFLEDELWPP

[13] = target: T13, AMH3647-3 (Hamster sequence) (Hamster)
T13 peptide: GLIFFEDGIWPL

[14] = target: T14, AMH3647-19 (Dog sequence) (Dog)
T14 peptide: GLLFQPDWDWPP

[15] = target: T15, AMH3647-16 (Degu sequence) (Degu)
T15 peptide: GLIFPEDWVWPP

[16] = target: T16, AMH3647-23 (Cattle sequence) (Cattle)
T16 peptide: ALIFQQAWDWPL

[17] = target: T17, AMH3647-13 (Rat sequence) (Rat)
T17 peptide: GLIFLEDGVWPP

[18] = target: T18, AMH3647-18 (Simum sequence) (Simum)
T18 peptide: GLIFRQDWDWPP

[19] = target: T19, AMH3647-6 (Otolemur sequence) (Otolemur)
T19 peptide: GLIFHKDWDWQP

[20] = target: T20, AMH3647-11 (Neotoma sequence) (Neotoma)
T20 peptide: GLIFLEDGIWPP

[21] = target: T21, AMH3647-2 (Beaver sequence) (Beaver)
T21 peptide: DLIFHEDWAWPP

[22] = target: T22, AMH3647-25 (Horse sequence) (Horse)
T22 peptide: GLIFHQDWDWPP

[23] = target: T23, AMH3647-1 (Deer sequence) (Deer)
T23 peptide: ALIFQQDWDWPL

[24] = target: T24, AMH3647-17 (Chimpanzee sequence) (Chimpanzee)
T24 peptide: GLIFPEDLDWPP

[25] = target: T25, AMH3647-12 (Gerbil sequence) (Gerbil)
T25 peptide: GLIFLEDGLWPP

[26] = target: T26, AMH3647-9 (Horseshoe bat sequence) (Horseshoe bat)
T26 peptide: GLIFHQDWDWSP

[27] = target: T27, AMH3647-10 (Pig sequence) (Pig)
T27 peptide: GLIFHWDWNWPP

[28] = target: T28, AMH3647-24 (Owl sequence) (Owl)
T28 peptide: GLIFGEDVDWPP

AMH3647-7 (Cat sequence) = target: T29, AMH3647-7 (Cat sequence) (Cat)
T29 peptide: GLIFHPDWDWQP

percent inhibition [1]: 92%
percent inhibition [2]: -19%
percent inhibition [3]: 9%
percent inhibition [4]: -10%
percent inhibition [5]: -1%
percent inhibition [6]: 25%
percent inhibition [7]: 100%
percent inhibition [8]: 22%
percent inhibition [9]: 8%
percent inhibition [10]: 3%
percent inhibition [11]: 2%
percent inhibition [12]: -9%
percent inhibition [13]: 8%
percent inhibition [14]: -1%
percent inhibition [15]: -2%
percent inhibition [16]: -8%
percent inhibition [17]: 11%
percent inhibition [18]: 19%
percent inhibition [19]: 3%
percent inhibition [20]: 5%
percent inhibition [21]: 11%
percent inhibition [22]: -2%
percent inhibition [23]: -6%
percent inhibition [24]: 9%
percent inhibition [25]: 5%
percent inhibition [26]: -3%
percent inhibition [27]: 8%
percent inhibition [28]: 19%
percent inhibition (AMH3647-7 (Cat sequence)): 6%
B1: monoclonal antibody C9F2-2 (antibody, V domains shown)
VH: EVQLVESGGGLVKPGGSLKLSCAASGFAFSTYDMSWVRQTPEKRLEWVAYISPGGGATYYPDTVKGRFTISRDNAKNTLYLQMTSLKSEDTAMYYCAGRRDYYGMDYWGQGTSVTVSS
VL: DVVMTQTPLSLPVSLGDQASISCRSSQSLVHSNGNTYLHWYLQKPGQSPKLLIYKVSNRFSGVPDRFSGSGSGTDFTLKISRVEAEDLGVYFCSQSTHVPWTFGGGTKLEIK
notes: Mouse hybridoma antibody purified from ascites; the tie is indirect; also called hybridoma CCTCC NO: C2018183
